Test results reported in IntAct's records for PubMed 16712842.

B1: UV excision repair protein RAD23 homolog B (Homo sapiens), P54727 (parent)
chain: MQVTLKTLQQQTFKIDIDPEETVKALKEKIESEKGKDAFPVAGQKLIYAGKILNDDTALKEYKIDEKNFVVVMVTKPKAVSTPAPATTQQSAPASTTAVTSSTTTTVAQAPTPVPALAPTSTPASITPASATASSEPAPASAAKQEKPAEKPAETPVATSPTATDSTSGDSSRSNLFEDATSALVTGQSYENMVTEIMSMGYEREQVIAALRASFNNPDRAVEYLLMGIPGDRESQAVVDPPQAASTGAPQSSAVAAAAATTTATTTTTSSGGHPLEFLRNQPQFQQMRQIIQQNPSLLPALLQQIGRENPQLLQQISQHQEHFIQMLNEPVQEAGGQGGGGGGGSGGIAEAGSGHMNYIQVTPQEKEAIERLKALGFPEGLVIQAYFACEKNENLAANFLLQQNFDED

Variants of: B1
Details: with ef1a1_human EEF1A1, P68104
Sequence of ef1a1_human EEF1A1, P68104 (P68104 whole entry): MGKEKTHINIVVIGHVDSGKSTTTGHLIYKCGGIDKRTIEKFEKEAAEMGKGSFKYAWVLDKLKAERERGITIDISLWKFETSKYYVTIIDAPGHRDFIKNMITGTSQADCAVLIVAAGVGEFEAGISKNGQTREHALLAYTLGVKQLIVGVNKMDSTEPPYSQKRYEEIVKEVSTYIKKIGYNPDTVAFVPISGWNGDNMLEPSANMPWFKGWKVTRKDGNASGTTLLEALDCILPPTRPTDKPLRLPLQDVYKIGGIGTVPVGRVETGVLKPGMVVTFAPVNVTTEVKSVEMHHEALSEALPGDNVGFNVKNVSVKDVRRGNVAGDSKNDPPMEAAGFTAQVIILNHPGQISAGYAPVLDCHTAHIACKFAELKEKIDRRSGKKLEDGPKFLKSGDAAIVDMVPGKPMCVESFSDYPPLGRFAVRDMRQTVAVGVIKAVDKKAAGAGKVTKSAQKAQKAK

Row | Variant | effect of a mutation on the interaction
1 | K6A | disrupting interaction

Variants of: B1
Details: with uba3_human UBA3, Q8TBC4
Sequence of uba3_human UBA3, Q8TBC4 (Q8TBC4 whole entry): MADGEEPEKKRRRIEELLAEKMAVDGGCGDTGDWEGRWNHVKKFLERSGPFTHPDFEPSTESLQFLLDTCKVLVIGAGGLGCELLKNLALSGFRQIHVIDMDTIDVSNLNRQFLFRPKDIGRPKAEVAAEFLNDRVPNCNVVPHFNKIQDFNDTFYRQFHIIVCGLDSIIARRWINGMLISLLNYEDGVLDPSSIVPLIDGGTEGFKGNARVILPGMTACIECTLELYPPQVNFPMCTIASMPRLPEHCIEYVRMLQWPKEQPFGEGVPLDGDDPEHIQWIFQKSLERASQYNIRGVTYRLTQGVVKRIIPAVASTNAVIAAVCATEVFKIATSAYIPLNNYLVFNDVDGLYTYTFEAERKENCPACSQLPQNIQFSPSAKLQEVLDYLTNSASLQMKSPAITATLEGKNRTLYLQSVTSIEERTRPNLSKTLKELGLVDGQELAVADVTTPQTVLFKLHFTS

Row | Variant | effect of a mutation on the interaction
2 | K6A | increasing interaction
